For assay [1], the target named is N-type VGCCs controlling excitatory synaptic transmission between primary afferents and dorsal horn (rat) (UniProt Q02294). As to the kind of experiment: cell-based or functional assay.
In assay [2] the target is N-type VGCCs in rat brain membranes (rat) (UniProt Q02294). As to the kind of experiment: displacement of 125I-GVIA from rat brain membranes. Background: Displacement assays read how much labelled ligand stays bound in the presence of the test substance.
Sequence of N-type VGCCs in rat brain membranes (rat) (Q02294 whole entry): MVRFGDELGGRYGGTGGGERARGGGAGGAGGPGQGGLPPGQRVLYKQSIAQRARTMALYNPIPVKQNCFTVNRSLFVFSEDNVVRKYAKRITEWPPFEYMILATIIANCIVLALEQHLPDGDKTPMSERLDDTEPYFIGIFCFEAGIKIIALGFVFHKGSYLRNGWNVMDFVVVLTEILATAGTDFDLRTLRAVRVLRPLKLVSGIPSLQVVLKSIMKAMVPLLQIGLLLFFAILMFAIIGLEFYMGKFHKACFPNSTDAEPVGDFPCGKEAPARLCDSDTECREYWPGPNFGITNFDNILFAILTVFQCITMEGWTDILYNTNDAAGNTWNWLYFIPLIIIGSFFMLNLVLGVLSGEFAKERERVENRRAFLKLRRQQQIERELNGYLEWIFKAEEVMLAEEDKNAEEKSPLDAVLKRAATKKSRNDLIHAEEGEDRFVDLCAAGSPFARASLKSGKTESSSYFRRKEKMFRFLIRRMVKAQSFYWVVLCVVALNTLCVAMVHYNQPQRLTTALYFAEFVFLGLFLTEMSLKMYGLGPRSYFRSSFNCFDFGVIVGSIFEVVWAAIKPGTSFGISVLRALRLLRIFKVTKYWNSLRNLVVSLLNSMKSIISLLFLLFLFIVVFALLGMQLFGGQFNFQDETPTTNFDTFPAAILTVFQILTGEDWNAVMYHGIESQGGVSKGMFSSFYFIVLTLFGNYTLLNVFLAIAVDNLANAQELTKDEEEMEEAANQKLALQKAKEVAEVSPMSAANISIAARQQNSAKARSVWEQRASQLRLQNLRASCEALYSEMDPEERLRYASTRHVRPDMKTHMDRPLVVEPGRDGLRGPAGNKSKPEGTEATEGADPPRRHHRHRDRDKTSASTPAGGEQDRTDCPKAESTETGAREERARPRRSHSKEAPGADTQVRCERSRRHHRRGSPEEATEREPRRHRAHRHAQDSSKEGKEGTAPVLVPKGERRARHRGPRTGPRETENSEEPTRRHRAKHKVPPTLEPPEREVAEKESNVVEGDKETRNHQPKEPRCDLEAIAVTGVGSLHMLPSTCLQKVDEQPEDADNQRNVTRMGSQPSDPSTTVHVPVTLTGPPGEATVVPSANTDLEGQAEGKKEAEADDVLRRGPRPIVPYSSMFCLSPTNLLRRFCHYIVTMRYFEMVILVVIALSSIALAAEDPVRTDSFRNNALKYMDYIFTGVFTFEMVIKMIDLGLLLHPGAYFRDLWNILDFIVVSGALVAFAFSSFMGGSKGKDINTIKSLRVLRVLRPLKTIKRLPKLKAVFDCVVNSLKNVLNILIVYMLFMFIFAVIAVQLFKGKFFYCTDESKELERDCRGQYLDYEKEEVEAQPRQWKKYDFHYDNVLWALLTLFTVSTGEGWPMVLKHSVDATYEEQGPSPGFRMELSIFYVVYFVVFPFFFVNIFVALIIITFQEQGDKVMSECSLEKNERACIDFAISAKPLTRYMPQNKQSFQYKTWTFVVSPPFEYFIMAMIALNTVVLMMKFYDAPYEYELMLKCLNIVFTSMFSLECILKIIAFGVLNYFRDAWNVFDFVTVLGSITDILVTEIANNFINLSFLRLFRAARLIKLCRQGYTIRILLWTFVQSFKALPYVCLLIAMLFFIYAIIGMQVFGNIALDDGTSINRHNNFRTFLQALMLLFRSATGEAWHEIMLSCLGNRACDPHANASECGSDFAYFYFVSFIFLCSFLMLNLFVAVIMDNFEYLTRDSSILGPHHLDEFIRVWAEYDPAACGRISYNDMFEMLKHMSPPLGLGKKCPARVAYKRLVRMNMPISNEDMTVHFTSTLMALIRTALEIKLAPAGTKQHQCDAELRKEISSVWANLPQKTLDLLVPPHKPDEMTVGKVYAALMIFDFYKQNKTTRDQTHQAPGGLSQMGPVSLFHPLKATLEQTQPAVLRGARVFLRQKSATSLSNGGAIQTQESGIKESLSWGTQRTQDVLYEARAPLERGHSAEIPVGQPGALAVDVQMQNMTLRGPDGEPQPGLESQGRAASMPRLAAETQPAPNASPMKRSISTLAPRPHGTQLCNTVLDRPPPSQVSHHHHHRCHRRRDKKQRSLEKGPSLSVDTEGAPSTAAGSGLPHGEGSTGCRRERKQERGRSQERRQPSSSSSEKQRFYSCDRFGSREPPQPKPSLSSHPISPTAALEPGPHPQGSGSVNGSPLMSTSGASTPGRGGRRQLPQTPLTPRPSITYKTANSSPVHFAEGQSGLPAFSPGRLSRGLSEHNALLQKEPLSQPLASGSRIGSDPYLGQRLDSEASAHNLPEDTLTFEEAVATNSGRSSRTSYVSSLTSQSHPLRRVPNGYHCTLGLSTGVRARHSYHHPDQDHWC
In assay [3] the target is N-type VGCCs controlling excitatory synaptic transmission between primary afferents and dorsal horn (rat), Q02294. The assay is described as follows: cell-based or functional assay.
Sequence of N-type VGCCs controlling excitatory synaptic transmission between primary afferents and dorsal horn (rat), Q02294 (Q02294 whole entry): as above
The target of assay [4] is N-type VGCCs in rat brain membranes (rat), Q02294. As to the kind of experiment: displacement of 125I-GVIA from rat brain membranes.
Sequence of N-type VGCCs in rat brain membranes (rat), Q02294 (Q02294 whole entry): as above

Sequence of N-type VGCCs controlling excitatory synaptic transmission between primary afferents and dorsal horn (rat) (Q02294 whole entry): as above

For the molecule ω-conotoxin CVIE (peptide), in assay [1], the EPSC amplitude recovered 10-15 min after washout, percent of control was 78%. In assay [2], the affinity worked out at 37 µM and the pIC50 turned out to be 10.7 M.

CKGKGASCRRTSYDCCTGSCRSGRC (modifications not checked) [ω-conotoxin CVIF]: the EPSC amplitude recovered 10-15 min after washout, percent of control in assay [3] stood at 73%. In assay [4], the affinity was found to be 98 µM and the pIC50 was 10.6 M.

In assay [4], CKSKGAKCSKLMYDCCSGSCSGTVGRC (modifications not checked) [ω-conotoxin CVID, P58920 46-72] registered an affinity of 12 µM and a pIC50 of 11 M.

In assay [4], CKSPGSSCSPTSYNCCRSCNPYTKRCY (modifications not checked) [ω-conotoxin GVIA, P01522 46-72] gave an affinity of 24 µM and a pIC50 of 10.6 M.

(Values after US20120329717A1.)
